# Laboratory results from patent publication US20200048654A1.
# Molecular target: rice XA21 receptor kinase (rice)
# Assay: cell-based or functional assay
row,Substance,EC50 of total ROS production over 3 h in Ubi::XA21 rice leaves
1,RaxX21-sY (peptide),20 nM
2,RaxX24-sY (peptide),30 nM
3,RaxX39-sY (peptide),70 nM
4,RaxX60-sY (full-length sulfated recombinant RaxX-His from Xoo PXO99) (ligand),100 nM
